Measurements: patent US20240182540A1

Target: EGFRvIII variant of EGFR, expressed on CT2AvIII cells (UniProt P00533)
Experiment: cell-based or functional assay

Substance “third-generation EGFRvIII-targeting CAR (anti-EGFRvIII scFv clone 139 fused to CD8 hinge and TM, CD28, 4-1BB and CD3zeta), on transduced mouse T cells” has a percent survival of tumor cells, in vitro cytotoxicity against a 70:30 mixture of CT2A:CT2AvIII, 24 h co-culture of 75%.
